In patent US20170306033A1 (Amgen, published 2017):
Where a chain is given by its changes, count along the chain named.

Experiments:
[1] = biological target: human CGRP receptor (human, UniProt Q16602 23-461; O60894 27-148); test: cell-based or functional assay
[2] = biological target: T1, human PAC1 receptor (human, UniProt P41586 21-468); test: cell-based or functional assay
T1 sequence: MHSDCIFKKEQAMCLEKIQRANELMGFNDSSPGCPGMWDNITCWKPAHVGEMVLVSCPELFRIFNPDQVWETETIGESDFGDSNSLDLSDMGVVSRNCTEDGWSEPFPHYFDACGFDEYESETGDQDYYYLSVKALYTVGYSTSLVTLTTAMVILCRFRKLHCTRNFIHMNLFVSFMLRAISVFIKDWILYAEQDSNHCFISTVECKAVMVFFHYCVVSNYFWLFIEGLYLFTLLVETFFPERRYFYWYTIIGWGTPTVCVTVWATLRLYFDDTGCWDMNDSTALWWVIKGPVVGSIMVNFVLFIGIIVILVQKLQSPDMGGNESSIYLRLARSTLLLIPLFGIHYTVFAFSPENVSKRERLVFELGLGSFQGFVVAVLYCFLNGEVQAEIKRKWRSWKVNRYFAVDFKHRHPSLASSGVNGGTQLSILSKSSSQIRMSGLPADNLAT

human CGRP receptor, sequence (Q16602 23-461 limits assumed, chain 1 of 2): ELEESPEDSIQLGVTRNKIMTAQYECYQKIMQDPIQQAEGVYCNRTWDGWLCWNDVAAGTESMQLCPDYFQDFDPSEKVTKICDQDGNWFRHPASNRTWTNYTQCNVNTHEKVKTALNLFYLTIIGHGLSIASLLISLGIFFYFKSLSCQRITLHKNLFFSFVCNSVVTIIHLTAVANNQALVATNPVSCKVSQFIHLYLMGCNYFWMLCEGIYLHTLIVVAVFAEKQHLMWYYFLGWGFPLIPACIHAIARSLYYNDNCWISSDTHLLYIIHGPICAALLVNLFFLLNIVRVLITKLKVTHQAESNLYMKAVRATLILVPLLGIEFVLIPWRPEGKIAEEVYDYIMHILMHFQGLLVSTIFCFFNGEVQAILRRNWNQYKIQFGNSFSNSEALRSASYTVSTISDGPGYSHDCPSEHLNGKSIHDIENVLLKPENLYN
human CGRP receptor, sequence (O60894 27-148 limits assumed, chain 2 of 2): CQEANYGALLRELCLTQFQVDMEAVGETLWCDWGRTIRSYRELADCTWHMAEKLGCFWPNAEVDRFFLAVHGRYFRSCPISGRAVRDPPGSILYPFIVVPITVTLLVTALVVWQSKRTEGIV

B1: iPS:327740 (bispecific antibody, human IgG1, kappa, lambda, N297G)
light 1: not shown
heavy 1: not shown
light 2: QSVLTQPPSVSAAPGQKVTISCSGSSSNIGNNYVSWYQQLPGTAPKLLIYDNNKRPSGIPDRFSGSKSGTSATLGITGLQTGDEADYYCGTWDSRLSAVVFGGGTKLTVLGQPKANPTVTLFPPSSEELQANKATLVCLISDFYPGAVTVAWKADGSPVKAGVETTKPSKQSNNKYAAKSYLSLTPEQWKSHRSYSCQVTHEGSTVEKTVAPTECS
heavy 2: QVQLVESGGGVVQPGRSLRLSCAASGFTFSSFGMHWVRQAPGKGLEWVAVISFDGSIKYSVDSVKGRFTISRDNSKNTLFLQMNSLRAEDTAVYYCARDRLNYYESSGYYHYKYYGMAVWGQGTTVTVSSASTKGPSVFPLAPSSKSTSGGTAALGCLVKDYFPEPVTVSWNSGALTSGVHTFPAVLQSSGLYSLESVVTVPSSSLGTQTYICNVNHKPSNTKVDKKVEPKSCDKTHTCPPCPAPELLGGPSVFLFPPKPKDTLMISRTPEVTCVVVDVSHEDPEVKFNWYVDGVEVHNAKTKPCEEQYGSTYRCVSVLTVLHQDWLNGKEYKCKVSNKALPAPIEKTISKAKGQPREPQVYTLPPSRKKMTKNQVSLTCLVKGFYPSDIAVEWESNGQPENNYKTTPPVLKSDGSFFLYSKLTVDKSRWQQGNVFSCSVMHEALHNHYTQKSLSLSPGK
% inhibition of human CGRPR [1]: 74% | % inhibition of human PAC1 [2]: 58%

B2: iPS:327879 (bispecific antibody, human IgG1, kappa, lambda, N297G)
light 1: not shown
heavy 1: not shown
light 2: B1 light 2 with A72T
heavy 2: B1 heavy 2 with K370E
% inhibition of human CGRPR [1]: 81% | % inhibition of human PAC1 [2]: 19%

B3: iPS:327871 (bispecific antibody, human IgG2, kappa, lambda)
light 1: DIQLTQSPSFLSASVGDRVTITCRASQSIGRSLHWYQQKPGKAPKLLIKYASQSLSGVPSRFSGSGSGTEFTLTISSLQPEDFATYYCHQSSRLPFTFGPGTKVDIKRTVAAPSVFIFPPSDEQLKSGTASVVCLLNNFYPREAKVQWKVDNALQSGNSQESVTEQDSKDSTYSLESTLTLSKADYEKHKVYACEVTHQGLSSPVTKSFNRGEC
heavy 1: QVQLVESGAEVVKPGASVKVSCKASGFTFSRFAMHWVRQAPGQGLEWMGVISYDGGNKYYAESVKGRVTMTRDTSTSTLYMELSSLRSEDTAVYYCARGYDVLTGYPDYWGQGTLVTVSSASTKGPSVFPLAPCSRSTSESTAALGCLVKDYFPEPVTVSWNSGALTSGVHTFPAVLQSSGLYSLKSVVTVPSSNFGTQTYTCNVDHKPSNTKVDKTVERKCCVECPPCPAPPVAGPSVFLFPPKPKDTLMISRTPEVTCVVVDVSHEDPEVQFNWYVDGVEVHNAKTKPREEQFNSTFRVVSVLTVVHQDWLNGKEYKCKVSNKGLPAPIEKTISKTKGQPREPQVYTLPPSREEMTKNQVSLTCLVDGFYPSDIAVEWESNGQPENNYDTTPPMLDSDGSFFLYSDLTVDKSRWQQGNVFSCSVMHEALHNHYTQKSLSLSPGK
light 2: B1 light 2 with A72T
heavy 2: QVQLVESGGGVVQPGRSLRLSCAASGFTFSSFGMHWVRQAPGKGLEWVAVISFDGSIKYSVDSVKGRFTISRDNSKNTLFLQMNSLRAEDTAVYYCARDRLNYYDSSGYYHYKYYGMAVWGQGTTVTVSSASTKGPSVFPLAPCSRSTSESTAALGCLVKDYFPEPVTVSWNSGALTSGVHTFPAVLQSSGLYSLESVVTVPSSNFGTQTYTCNVDHKPSNTKVDKTVERKCCVECPPCPAPPVAGPSVFLFPPKPKDTLMISRTPEVTCVVVDVSHEDPEVQFNWYVDGVEVHNAKTKPREEQFNSTFRVVSVLTVVHQDWLNGKEYKCKVSNKGLPAPIEKTISKTKGQPREPQVYTLPPSRKKMTKNQVSLTCLVKGFYPSDIAVEWESNGQPENNYKTTPPMLKSDGSFFLYSKLTVDKSRWQQGNVFSCSVMHEALHNHYTQKSLSLSPGK
% inhibition of human CGRPR [1]: 65% | % inhibition of human PAC1 [2]: 68%

B4: iPS:327742 (bispecific antibody, human IgG1, kappa, lambda, N297G)
light 1: EIVLTQSPATLSLSPGERATLSCRASQSVGRSLHWYQQKPGQAPRLLIKYASQSLSGIPARFSGSGSGTDFTLTISSLEPEDFAVYYCHQSSRLPFTFGPGTKVDIKRTVAAPSVFIFPPSDEQLKSGTASVVCLLNNFYPREAKVQWKVDNALQSGNSQESVTEQDSKDSTYSLESTLTLSKADYEKHKVYACEVTHQGLSSPVTKSFNRGEC
heavy 1: not shown
light 2: B1 light 2
heavy 2: B1 heavy 2
% inhibition of human CGRPR [1]: 84% | % inhibition of human PAC1 [2]: 96%

B5: iPS:327741 (bispecific antibody, human IgG1, kappa, lambda, N297G)
light 1: B3 light 1
heavy 1: not shown
light 2: B1 light 2
heavy 2: B1 heavy 2
% inhibition of human CGRPR [1]: 83% | % inhibition of human PAC1 [2]: 70%

B6: iPS:327878 (bispecific antibody, human IgG1, kappa, lambda, N297G)
light 1: DIQMTQSPSSLSASVGDRITITCRASQSISRYLNWYQQKPGKAPKLLIYAASSLQSGIPSRFSGSGSGTDFTLTINSLQPEDFATYFCQQSYSPPFTFGQGTKVDIKRTVAAPSVFIFPPSDEQLKSGTASVVCLLNNFYPREAKVQWKVDNALQSGNSQESVTEQDSKDSTYSLESTLTLSKADYEKHKVYACEVTHQGLSSPVTKSFNRGEC
heavy 1: not shown
light 2: B1 light 2 with A72T
heavy 2: B1 heavy 2 with K370E
% inhibition of human CGRPR [1]: 75% | % inhibition of human PAC1 [2]: 42%

B7: iPS:327876 (bispecific antibody, human IgG1, kappa, N297G)
light 1: B6 light 1
heavy 1: not shown
light 2: EIVLTQSPGTLSLSPGERATLSCRASQSVSSGYLTWYQQKPGQAPRLLIYGASSRATGIPDRFSGSGSGTDFTLTISRLEPEDFAVYYCQQYGNSLSRFGQGTKLEIKRTVAAPSVFIFPPSDEQLKSGTASVVCLLNNFYPREAKVQWKVDNALQSGNSQESVTEQDSKDSTYSLKSTLTLSKADYEKHKVYACEVTHQGLSSPVTKSFNRGEC
heavy 2: not shown
% inhibition of human CGRPR [1]: 77% | % inhibition of human PAC1 [2]: 11%

B8: iPS:327872 (bispecific antibody, human IgG1, kappa, N297G)
light 1: B6 light 1
heavy 1: not shown
light 2: B7 light 2
heavy 2: not shown
% inhibition of human CGRPR [1]: 80% | % inhibition of human PAC1 [2]: 40%

B9: iPS:327877 (bispecific antibody, human IgG1, kappa, N297G)
light 1: not shown
heavy 1: not shown
light 2: B7 light 2
heavy 2: not shown
% inhibition of human CGRPR [1]: 72% | % inhibition of human PAC1 [2]: 22%
